Consider two substances from US20240352128A1.

What is called EC50 is the concentration needed to bring the measured effect to its halfway point. Low values mean a more potent agent, high ones a less potent agent.

The target of one test is CD16b (human) (UniProt O75015). In words: FACS.
The next test deals with CD16a (human) (UniProt P08637). In words: FACS. (In general: In flow cytometry, cells or beads pass a laser one at a time.)
CD16a (human), sequence (P08637 17-254): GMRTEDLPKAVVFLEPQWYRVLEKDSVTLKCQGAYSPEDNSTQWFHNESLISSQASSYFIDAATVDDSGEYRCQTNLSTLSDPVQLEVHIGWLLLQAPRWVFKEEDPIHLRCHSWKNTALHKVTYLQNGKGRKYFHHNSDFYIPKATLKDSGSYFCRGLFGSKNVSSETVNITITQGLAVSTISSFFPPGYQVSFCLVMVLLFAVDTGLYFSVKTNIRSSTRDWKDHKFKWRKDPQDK

CD16b (human), sequence (O75015 17-200): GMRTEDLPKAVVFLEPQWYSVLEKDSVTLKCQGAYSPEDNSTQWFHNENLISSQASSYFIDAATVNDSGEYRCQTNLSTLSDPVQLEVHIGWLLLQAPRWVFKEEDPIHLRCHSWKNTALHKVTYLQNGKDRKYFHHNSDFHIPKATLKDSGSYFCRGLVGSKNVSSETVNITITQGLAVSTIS

For the substance CD16A-mIgG1, the EC50 with CD16b (human) was found to be 401 µM.
Consider mouse IgG, for which the concentration for a half-maximal effect (EC50) in the test with CD16a (human) was 1950 µM; in the test with CD16b (human) it was 1440 µM.
